Laboratory results from US6071709A, “Nerve growth factor/receptor complex” (The United States of America as represented by the …, priority 1992, dated 2000).

Assays:
Assay type in all cases: cell-based
[1] = target: T1, gp140^prototrk (Rattus norvegicus, UniProt P35739); assay: trk tyrosine phosphorylation in PC12 cells treated with NGF (32P labelling / Ptyr immunoblot of trk immunoprecipitates)
T1 construct: tyrosine phosphorylation in response to NGF addition to PC12 cells; endogenous in cells; host or cells: PC12 cells
T1 sequence (P35739 33-799): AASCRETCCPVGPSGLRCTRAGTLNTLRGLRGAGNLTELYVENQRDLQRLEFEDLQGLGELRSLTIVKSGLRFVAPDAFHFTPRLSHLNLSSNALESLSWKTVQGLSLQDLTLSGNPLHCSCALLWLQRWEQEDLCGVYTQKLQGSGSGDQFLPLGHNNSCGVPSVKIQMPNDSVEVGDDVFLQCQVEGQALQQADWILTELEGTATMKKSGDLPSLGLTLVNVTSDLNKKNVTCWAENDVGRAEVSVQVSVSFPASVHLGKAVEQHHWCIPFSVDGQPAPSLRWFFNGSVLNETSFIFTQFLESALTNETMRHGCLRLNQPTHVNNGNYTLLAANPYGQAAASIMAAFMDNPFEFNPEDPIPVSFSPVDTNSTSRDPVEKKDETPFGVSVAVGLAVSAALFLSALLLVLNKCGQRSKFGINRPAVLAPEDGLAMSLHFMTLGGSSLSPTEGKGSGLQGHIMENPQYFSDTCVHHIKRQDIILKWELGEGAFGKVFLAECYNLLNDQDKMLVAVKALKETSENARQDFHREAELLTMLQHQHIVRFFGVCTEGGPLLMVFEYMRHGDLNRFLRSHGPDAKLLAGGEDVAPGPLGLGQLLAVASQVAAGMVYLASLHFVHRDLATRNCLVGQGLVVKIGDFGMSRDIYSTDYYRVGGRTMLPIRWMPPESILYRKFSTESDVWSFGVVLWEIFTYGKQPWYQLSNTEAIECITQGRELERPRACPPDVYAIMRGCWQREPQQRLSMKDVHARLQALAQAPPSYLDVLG
Protocol: FIGS. 1A-C show the tyrosine phosphorylation of gp140trk in PC12 cells and trk-expressing NIH-3T3 cells treated with NGF. FIG. 1A, gp140trk immunoprecipitated from PC12 cells or trk-expressing 3T3 cells labeled with ^32 P-orthophosphate. Immunoprecipitates were prepared with rabbit anti-trk antisera 43-4 (D. Martin-Zanca et al., Mol Cell. Biol. 9:24-33 (1989)) from lysates prepared from 3T3 cells expressing the rat trk gene (trk 3T3) (lane 1) or PC12 cells treated for 5 min with 100 ng/ml NGF at 37° C. (lanes 2 and 4) or mock treated (lane 3). The immunoprecipitate shown in lane 2 was prepared in the presence of the peptide used to generate the rabbit 43-4 trk antibody (Martin-Zanca et al., (1989)). Shown in FIG. 1B is the phosphoamino acid analysis of trk proteins phosphorylated in vitro in p140trk immunoprecipitates from NGF treated PC12 cells in vivo from NGF treated (+) or untreated (-) PC12 cells, or in vivo from trk 3T3 cells. The positions of phosphoserine (S), phosphothreonine (T), and phosphotyrosine (Y) are indicated. FIG. 1C, trk proteins from trk 3T3 cells phosphorylated […]. In lanes 1-3, gp140trk immunoprecipitates were probed with P-tyr antibodies. In lanes 4-6, gp140trk proteins were phosphorylated in vitro in kinase assays. Cells were treated with suramin (lanes 2 and 5) or with 500 ng/ml NGF for 10 min following suramin treatment. The band migrating at 110 kDa is a glycosylation precursor of gp140^prototrk (Martin-Zanca et al., (1989)). The band at the bottom of the figure is IgG. Molecular weight markers in kDa are indicated.
rtrk 3T3 cells were generated by CaPO4 mediated transfection of a rat trk cDNA into NIH-3T3 cells. Rat trk cDNAs were obtained from an embryonic rat DRG cDNA library. The longest trk cDNA obtained (2.4 kbp) was missing approximately 150 bp of the coding region as compared to available mouse and human trk sequence. The missing bases plus minimal (~50 bp) 5' flanking non-coding sequences were replaced from mouse first coding exon sequences and the reconstructed gene was placed downstream of an MSV-LTR. PC12 cells or rtrk 3T3 cells (2×10^7) were labeled with ^32 P orthophosphate (1 mCi.ml in 4 ml) for 4 hr at 37° C. Cells were treated with NGF for the indicated times, washed, lysed in buffer containing 1% NP40, and the lysates immunoprecipitated with trk antibody 43-4 (D. R. Kaplan et al., Cell 61:125-133 (1990)) and electrophoresed on 7.5% SDS-PAGE gels as previously described (Kaplan et al., (1990)). For b, the phosphorylated trk bands were eluted from the gel and phosphoamino acid analysis performed as described (B. M. Sefton et al., J. Cell 24:165-174 (1981)). gp140trk protein from NGF treated PC12 cells was phosphorylated in vitro. For c, rtrk 3T3 cells were treated with 1 mM suramin in Dulbecco's Modified Eagle Medium (DMEM) for 2 h or mock treated. Following extensive washing of the cells with DMEM, NGF was added for the time indicated. Cells were lysed and the lysates were immunoprecipitated with trk antibody. Immunoprecipitates were either subjected to immunoblot analysis with the phosphotyrosine (Ptyr) monoclonal antibody 4G10 (Lanes 1-3), or were analyzed in kinase assays. (D. K. Morrison, et al. Cell 58:649-657 (1989) and Kaplan et al., (1990)). Similar amounts of trk protein were present in each lane.
FIGS. 2A-C. Time course, growth factor specificity, and dose response of trk tyrosine phosphorylation in PC12 cells. A, Time course of trk tyrosine phosphorylation. Cells (2×10^7) were treated with 50 ng/ml NGF at 37° C. B, Effects of growth and differentiation factors on trk tyrosine phosphorylation. Cells were treated with 100 ng/ml NGF, 100 ng/ml basic fibroblast growth factor (FGF) (Boehringer Mannheim Biochemicals), 100 ng/ml epidermal growth factor (EGF) (Upstate Biotechnology, Inc.), 100 nM insulin (Sigma), or 1 μg/ml phorbal 12-myristate […] (PMA) (Sigma) for 15 min. at 37° C. C, dose response of trk tyrosine phosphorylation. […]

[2] = target: T2, p140^prototrk (Rattus norvegicus, UniProt P35739); assay: trk tyrosine phosphorylation in rtrk-3T3 cells, suramin treatment followed by NGF (in vivo and immune complex kinase assays); conditions: suramin treated rtrk-3T3 cells, NGF (500 ng/ml) added for 10 min
T2 sequence (P35739 33-799): as above
Protocol: rtrk 3T3 cells were generated by CaPO4 mediated transfection of a rat trk cDNA into NIH-3T3 cells. […] PC12 cells or rtrk 3T3 cells (2×10^7) were labeled with ^32 P orthophosphate (1 mCi.ml in 4 ml) for 4 hr at 37° C. […] For c, rtrk 3T3 cells were treated with 1 mM suramin in Dulbecco's Modified Eagle Medium (DMEM) for 2 h or mock treated. Following extensive washing of the cells with DMEM, NGF was added for the time indicated. Cells were lysed and the lysates were immunoprecipitated with trk antibody. Immunoprecipitates were either subjected to immunoblot analysis with the phosphotyrosine (Ptyr) monoclonal antibody 4G10 (Lanes 1-3), or were analyzed in kinase assays. […] Similar amounts of trk protein were present in each lane.

[3] = target: T2, p140^prototrk; assay: NGF-dependent trk tyrosine phosphorylation in NR18 cells (PC12 derivative); design: the phosphorylation state of the trk receptor on the NR18 cell line; endogenous in cells; host or cells: NR18 cells; conditions: 100 ng/ml NGF for 5 min
Excerpt: FIGS. 4A-B show NGF-dependent tyrosine phosphorylation of gp140trk in the human neuroblastoma cell lines LA-N-5, SY5Y, and dorsal root ganglia from mouse embryos. FIG. 4A, gp140trk was immunoprecipitated from untreated (-) or NGF treated (+) LA-N-5 cells (K. H. Sonnenfeld and D. N. Ishii, J. Neurosci. Res. 8:375-391 (1982)), SY5Y cells (K. H. Sonnenfeld and D. N. Ishii, (1982)), NR18 cells (M. A. Bothwell et al., Cell 21:857-866 (1980)), or PC12 cells. Immunoprecipitates were probed with P-tyr antibodies. The differences in trk protein mobilities are due to differences in glycosylation. FIG. 4B, Tyrosine phosphorylation of gp140trk in DRGs from 13.5 day or 14.5 day embryonic mice. DRGs were maintained in 100 ng/ml NGF for ≥10 min prior to lysis and immunoprecipitation with trk antibodies. trk immunoprecipitates were probed with P-tyr antibody. Tyrosine phosphorylated gp140trk from NGF-treated (+) PC12 cells or untreated (-) PC12 cells is shown for comparison. Samples were normalized for cell protein. Molecular weight markers in kDa are indicated.
Cell lines were treated with 100 ng/ml NGF for 5 min and gp140trk immunoprecipitated as in FIG. 1. DRGs were prepared by dissection for 13.5 or 14.5 day mouse embryos. […] Lysates were immunoprecipitated with trk antibody and the trk proteins were analyzed by antiphosphotyrosine immunoblots. […]

Substance: NGF: neurotrophic polypeptide factor, nerve growth factor; ligand of trk proto-oncogene receptor
- time to maximum levels of trk tyrosine phosphorylation ([1]; 50 ng/ml NGF, 37° C.): five
- stimulation of tyrosine phosphorylation of gp140^prototrk ([1]; 32P-orthophosphate labelled, 50 ng/ml NGF for 5 min): 20 fold
- half maximal tyrosine phosphorylation concentration ([1]; 30 min at 37° C., dose response): 0.1 ng/mL
- trk tyrosine phosphorylation after two days of treatment ([1]; fully differentiated, two days of NGF): Residual phosphorylation was detected
- stimulation of tyrosine phosphorylation of gp140^prototrk in vivo and in vitro [2]: at least 10 fold
- p140^prototrk phosphorylation in response to NGF [3]: no phosphorylation
